# Measured values published in patent US20230040008A1, “ANTI-HER2 POLYPEPTIDES DERIVATIVES AS NEW DIAGNOSTIC MOLECULAR PROBES” (BRACCO IMAGING S.P.A., priority 2019, published 2023).
# Entries after “also recorded” stand apart in the source; their conditions may differ.
# B1: affitin Aff02-0 (designed binder)
# chain: MRGSHHHHHHGSVKVKFWGAGVEKEVDTSKITWVTRSGKYVIFTYDDNGKAGPGRVPEKDAPKELLDMLARAEREK
# notes: also called unlabeled Aff02-0 affitin
# B2: IRDye800CW-Aff02 conjugate (designed binder)
# chain: MRGSHHHHHHGSVKVKFWGAGVEKEVDTSKITWVTRSGKYVIFTYDDNGKAGPGRVPEKDAPKELLDMLARAEREKC
# modifications: chain 1 pos 77: Cys carrying IRDye800CW through a maleimide thioether, written C
# notes: Aff02 was reduced with TCEP, then coupled to IRDye800CW-maleimide at the C-terminal Cys
# B3: IRDye800CW-Aff02: fluorophore IRDye800CW-maleimide conjugated to the C-terminal cysteine of affitin Aff02 (conjugate)
# chain: B2 chain
# modifications: cyclised or stapled
# B4: Aff02: 77 aac variant of SEQ ID NO: 1 with a Cys at the C-terminus and a hexahistidine tag at the N-terminus (protein)
# chain: B2 chain
# B5: Aff01: 64 aac anti-HER2 affitin, SEQ ID NO: 1 (protein)
# chain: VKVKFWGAGVEKEVDTSKITWVTRSGKYVIFTYDDNGKAGPGRVPEKDAPKELLDMLARAEREK
# Columns and labels:
# [1] = biological target: T1, human HER2 (hHER2) recombinant protein (Homo sapiens, UniProt P04626); assay: Biolayer interferometry (BLI) affinity assay on protein A biosensors coated with hHER2; settings: 1:1 binding fit model
# T1 construct: purchased R&D Systems
# Experimental: (§1) Affinity experiments were performed by Biolayer Interferometry (BLI) assay, using an Octet System and Protein A biosensors (ForteBio). Recombinant human protein hHER2 was purchased from R&D Systems (Minneapolis, US).
# (§2) The affinity of the polypeptides of the invention for the target HER2 was measured by Biolayer interferometry assay. To this purpose, the protein A biosensors (ForteBio) were coated with human HER2 (hHER2) recombinant protein. After a brief wash with PBS, the coated sensor was assayed versus the affitin Aff02-0 at different concentrations (i.e. […], 500, 250, 125, 62.5, 31.3, 15.6 and 0 nM).
# A curve fitting analysis was then performed in order to determine the dissociation equilibrium constant. The sensorgrams were analyzed using the Octet Data Analysis software 8.2 (ForteBio) with a 1:1 binding fit model to determine the dissociation equilibrium constant (Kd) and the related association and dissociation rate constants (kon and koff) with R^2 value assessing the fitting quality.
# The affinity of the IRDye800CW-Aff02 conjugate to the target HER2 was measured by Biolayer interferometry assay. To this purpose, the protein A biosensors (ForteBio) were coated with human HER2 (hHER2) recombinant protein. After a brief wash with PBS, the coated sensor was assayed versus the IRDye800CW-Aff02 conjugate at different concentrations (i.e. 10000, 1000, 100, 10, 1, 0.1 ng/mL).
# A steady state analysis was performed in order to determine the dissociation equilibrium constant. The sensorgrams were analyzed using the Octet Data Analysis software 8.2 (ForteBio) with a 1:1 binding fit model to determine the dissociation equilibrium constant (Kd).
# [2] = biological target: T2, recombinant human protein hHER2 (R&D Systems) (human, UniProt P04626 23-652); assay: BLI (Octet), hHER2 on Protein A biosensors, 1:1 fit
# T2 construct: also called human HER2 (hHER2) recombinant protein
# Experimental: as §1, §2
# A curve fitting analysis was then performed in order to determine the dissociation equilibrium constant. The sensorgrams were analyzed using the Octet Data Analysis software 8.2 (ForteBio) with a 1:1 binding fit model to determine the dissociation equilibrium constant (Kd) and the related association and dissociation rate constants (kₒₙ and koff) with R² value assessing the fitting quality.
# [3] = biological target: T2, recombinant human protein hHER2 (R&D …); assay: BLI (Octet), hHER2 on Protein A biosensors, steady state analysis
# [4] = parameters: species or system Balb/c nu/nu mice; settings: mouse, in vivo
# Experimental: In vivo imaging experiments were performed using the IVIS Spectrum In Vivo Imaging System (Perkin Elmer Inc.), equipped with 10 narrow band excitation filters (30 nm bandwidth) and 18 narrow band emission filters (20 nm bandwidth) spanning 430-850 nm.
# In vivo optical imaging biodistribution of IRDye800CW-Aff02 was evaluated in healthy mice. Optical Imaging experiments on three healthy mice were performed using an IVIS Spectrum system after administration of IRDye800CW-Aff02 at a dose of 10 nmol/mouse, in an administration volume of 0.2 mL. The experiments were carried out at 15 min, 30 min, 1 h, 2 h, 4 h, 6 h, 24 h and 48 hours after intravenous administration of the conjugate.
# Regions of interest (ROIs) were drawn on a reference background healthy region (hind leg's muscle) of the mouse and on whole body for each fluorescence image at every time point to evaluate signal intensity in the tissues, expressed as Average Radiant Efficiency (see FIG. 5, reporting the fluorescence signal curves of IRDye800CW-Aff02 administered 10 nmol/mouse in Balb/c nu/nu mice).
# Pharmacokinetic analysis of the signal was performed to evaluate the half time of the tested product by using a mono-exponential decay model and the results are reported in Table 3:
# After sacrifice, several organs were collected for the measure of residual fluorescence (after 48h). The measurements of fluorescence signal intensity have been obtained from the analysis of each organ selecting an area of interest (ROIs) at the center of each sample. The analyzed organs were: kidney, lung, spleen, liver, muscle and heart.
# HER2/Fc chimeric protein = biological target: T3, HER2/Fc chimeric protein (Homo sapiens, UniProt P04626); assay: Competitive ELISA of Aff02 versus trastuzumab-biotin or pertuzumab-biotin; type: binding
# T3 construct: Fc (immunoglobulin Fc fusion partner)
# Excerpt: A competitive ELISA assay has been developed in order to investigate if the epitope of the HER2/Neu antigen recognized by Aff02 polypeptide was distinct from the epitope recognized by the humanized monoclonal antibodies trastuzumab and pertuzumab, actually used in therapeutic treatments of HER2-positive tumors.
# The first experiment, aimed at evaluating the quality of the assay, was a competitive ELISA assay carried out between trastuzumab and trastuzumab-biotin. Briefly, a Medisorp transparent plastic plate (96 wells, Thermo Scientific), was coated (64 wells) with 2.5 μg/mL of HER2/Fc chimeric protein in TBS pH 7.4 (1 h, RT). The wells were blocked with 0.5% BSA in TBS (1 h, RT).
# At the end of the incubation, the plate was washed three times with 250 μL of TBS-T and incubated with Streptavidin-HRP 1:10000 in TBS-T (1 h at RT). The plate was washed again 3 times with TBS-T and developed 5 min with TMB reagent (100 μL). The reaction was blocked with 50 μL of sulfuric acid 2 M and read at 450 nm.
# As positive control, the same experiment was repeated using an antibody anti RSGH TAG-HRP (1:4000) in place of streptavidin-HRP, in order to evaluate the curve affinity of Aff02 to HER2 receptor.
# Briefly, a Medisorp transparent plastic plate (96 wells, Thermo Scientific) was coated (64 wells) with 2.5 μg/mL of Her2/Fc chimeric protein in TBS pH 7.4 (1 h, RT). The wells was blocked with 0.5% BSA in TBS (1 h, RT). […] At the end of the incubation, the plate was washed three times with 300 μL of TBS-T and incubated with Streptavidin-HRP 1:10000 or anti-RSGH TAG-HRP 1:4000 in TBS-T (1 h at RT). The plate was washed again 3 times with TBS-T and developed 5 min with TMB reagent (100 μL). The reaction was blocked with 50 μL of sulfuric acid 2 M and read at 450 nm.
# [5] = system: SK-BR-3 breast adenocarcinoma cell line (overexpressing HER2 receptor); assay: Cell internalization assay (viability with Pe38 fusion), HER2 overexpressing cells; type: cell-based
# Experimental: (§3) The cells internalization of Aff01 was evaluated using a dedicated cell-based assay. Briefly, Aff01 was tagged with SEQ ID NO: 3 (i.e. forming sequence Aff02-0) and then fused to a truncated portion of Pseudomonas exotoxin A, wherein the cell internalization domain of the toxin is removed, thus forming a final peptide with the sequence as set out in SEQ ID NO: 5. Such truncated form (Pe38) needs to be internalized by means of the Aff01 to keep its cytotoxic activity.
# (§4) To test internalization, then, the viability of the breast adenocarcinoma cell line SK-BR-3 (overexpressing HER2 receptor) and of the breast cancer cell line MCF-7 (low expressing HER2 receptor) was measured at different nanofitin concentrations.
# [6] = system: MCF-7 breast cancer cell line (low expressing HER2 receptor); assay: Cell internalization assay (viability with Pe38 fusion), HER2 low expressing cells; type: cell-based; settings: Aff01 tested as fusion Aff02-0/Pe38 (SEQ ID NO: 5); different nanofitin concentrations
# Experimental: as §3, §4
# HER2 = HER2 (Homo sapiens, UniProt P04626); assay: ELISA monitoring of anti-HER2 affitin selection; type: binding; settings: end of selection process
# Excerpt: (§5) To selectively target HER2 receptor, a library of affitins has been enriched against the target by several consecutive rounds of screening (up to 6 rounds). The enrichment of anti-HER2 affitins has been followed after any selection round by ELISA assay monitoring, also controlling the condition of negligible binding to human (HSA), murine (MSA) and bovine (BSA) serum albumin.
# [7] = system: human (HSA), murine (MSA) and bovine (BSA) serum albumin; assay: ELISA control of binding to serum albumins during selection
# Excerpt: as §5
molecule,measurement,setting,value
B1,koff,[1]; unlabeled affitin,8.3 ± 0.1 × 10^−3 s^−1
same,kon,[1]; unlabeled affitin,4.5 ± 0.1 × 10^5 M^−1s^−1
same,Kd,[2],18 nM
same,koff,[2],0.0083 s⁻¹
same,kon,[2],450000 M⁻¹ s⁻¹
B2,Kd,[3],1.6 nM
B3,Kd (dissociation equilibrium constant) of the complex IRDye800CW-Aff02 conjugate/hHER2,[1]; steady state analysis,in the nanomolar range
same,clearance pathway,[4],preferably cleared by the renal pathway
same,Half life in muscle,[4]; iv,2.122 h
same,Half life in whole body,[4]; iv,2.196 h
same,average half-life (muscle and whole body),[4]; iv,2.16 h
B4,"competition with trastuzumab and pertuzumab for binding to HER2, assay c / overall","HER2/Fc chimeric protein; antibody-biotin curves in presence or absence of Aff02, FIGS. 4a, 4b",no competition; also recorded: do not compete for binding to HER2
same,binding to HER2 receptor (ELISA),"HER2/Fc chimeric protein; assay a, FIG. 2",binders for HER2 receptor
same,"Aff02 response (anti RSGH-Tag Ab detection) with increasing trastuzumab-biotin or pertuzumab-biotin, assay b","HER2/Fc chimeric protein; fixed 10 μg/mL Aff02, variable antibody-biotin, FIGS. 3a, 3b",negligible response decrease
same,"epitope competition, assay a","HER2/Fc chimeric protein; variable Aff02 (0.01-10000 ng/mL) with 0.2 μg/mL trastuzumab-biotin or pertuzumab-biotin, FIG. 2",epitopes recognized by trastuzumab and pertuzumab are different from that recognized by Aff02
B5,cytotoxic induction (cell viability) on SK-BR-3 cells,"[5]; Aff01 tested as fusion Aff02-0/Pe38 (SEQ ID NO: 5), different nanofitin concentrations",dose-dependent cytotoxic induction
same,cell internalization through HER2 receptor,[5]; concluded from cell death induction by Pe38 fusion,effective transport of Pe38 through HER2 receptor
same,alteration of cell viability on MCF-7 cells,[6],no significant alterations
same,affinity to HER2,HER2,nanomolar affinity
same,binding to albumin,[7],absence of binding to albumin
